For the experiment, the target named is MCMV nuclear capsids (murine cytomegalovirus (MCMV) | murine cytomegalovirus (MCMV), Smith strain). The experiment can be described thus: immunoelectron microscopy of purified nuclear capsids; nuclear capsids purified on a sucrose gradient from infected cells, adsorbed on grids, rabbit GFP antiserum and protein A-gold (10 nm); gold beads per capsid counted; WT capsids as background.

The substance “S-GFP-SCP fusion protein expressed ectopically from recombinant MCMV” gave a gold beads per capsid (anti-GFP immunogold) (gold beads per capsid) of 15.
